Experimental data reported in paper doi:10.1101/2022.11.10.512828.
Like-named read-outs stand apart in the source and are kept apart here. One block for each substance: values may come before it.

Columns and labels:
[1] = biological target: LS-αICD chain of the co-expression construct (pETDuet1, first cloning site) (Saccharomyces cerevisiae | rat) (UniProt P50861); assay: densitometry of Coomassie-stained SDS-PAGE bands of the purified complex; details: scale: βICD chains to 2 αICD chains in the pentamer
[2] = biological target: LS-αβICD, heteropentamer of two LS-αICD and three LS-βICD chains (Saccharomyces cerevisiae | rat) (UniProt P50861); assay: SEC
[3] = biological target: LS-αβICD, heteropentamer of two LS-αICD and three LS-βICD chains (Saccharomyces cerevisiae | rat) (UniProt P50861); assay: SEC; remark: listed apart in the source
[4] = biological target: LS-αβICD, heteropentamer of two LS-αICD and three LS-βICD chains (Saccharomyces cerevisiae | rat) (UniProt P50861); assay: SEC; remark: listed apart in the source
[5] = biological target: LS-αβICD, heteropentamer of two LS-αICD and three LS-βICD chains (Saccharomyces cerevisiae | rat) (UniProt P50861); assay: ITC
[6] = biological target: unmodified lumazine synthase from Saccharomyces cerevisiae (LS^wt) (Saccharomyces cerevisiae) (UniProt P50861); assay: SEC
[7] = biological target: unmodified lumazine synthase from Saccharomyces cerevisiae (LS^wt) (Saccharomyces cerevisiae) (UniProt P50861); assay: AUC

- stoichiometry N [1]: 3
Substance: LS-βICD chain of the co-expression construct (pETDuet1, second cloning site) (from UniProt P50861 1-138; P50861 139-169)

- amount of gephyrin bound [2]: 3 nmol
- percent of gephyrin bound [2]: 75%
- stoichiometry N (gephyrin trimer per LS pentamer) [2]: 1
- stoichiometry N (gephyrin trimers to 3 LS pentamers) [2]: 3
- stoichiometry N (gephyrin trimers to 3 LS pentamers) [3]: 4
- amount of gephyrin bound [4]: 4 nmol
- Kd [5]: 490 nM
- stoichiometry N [5]: 0.57
Substance: full-length rat gephyrin splice variant rC4 (natural protein)

- Kd [5]: 680 nM
- stoichiometry N [5]: 0.41
Substance: gephyrin E-domain (GephE) dimer (domain or fragment)

- stoichiometry N [6]: 5
- stoichiometry N [7]: 5
Substance: unmodified lumazine synthase from Saccharomyces cerevisiae (LS^wt) (from UniProt P50861 2-169) (enzyme)
